By stoichiometry N is commonly meant the number of molecules, sites or subunits per partner or assembly.

The target of assay [1] is Sinorhizobium meliloti Clr, C-terminally His6-tagged (Sinorhizobium meliloti). The assay is described as follows: crystal structure.
The target is the same in assay [2]. The experiment in a line: SEC.

“Sinorhizobium meliloti Clr, C-terminally His6-tagged (natural protein)”: the stoichiometry N in assay [1] amounted to 2. Also, the percent in the monomeric state (monomer-dimer equilibrium) in assay [2] was found to be 86%.

Values taken from publication doi:10.1101/2022.11.04.515266.
